In this series the test system is anti-digoxigenin IgG antibody (sheep). In words: fluorescence (FRET) titration. The settings on record: 5'-digoxigenin; 25 mM HEPES pH 7.2, 0.1 M NaCl, 37 C (FRET titrations, templated reactions); native PAGE binding buffer not given in the material.

By Kd is commonly meant the constant that tells how readily two partners part at equilibrium. Read a high Kd as lower affinity. Sequence “GTCACCGCAAAATAAGATTTTTTTTTTGAGTCGAATTCGTACC [DIG-Q-strand#2 (DIG-conjugated templating strand)]” displayed a dissociation constant Kd of 3.6 nM.
